Data as given in paper PMC2677865.

B1: CK2α′ as the active (activation) domain fusion (natural protein)
chain: MPGPAAGSRARVYAEVNSLRSREYWDYEAHVPSWGNQDDYQLVRKLGRGKYSEVFEAINITNNERVVVKILKPVKKKKIKREVKILENLRGGTNIIKLIDTVKDPVSKTPALVFEYINNTDFKQLYQILTDFDIRFYMYELLKALDYCHSKGIMHRDVKPHNVMIDHQQKKLRLIDWGLAEFYHPAQEYNVRVASRYFKGPELLVDYQMYDYSLDMWSLGCMLASMIFRKEPFFHGQDNYDQLVRIAKVLGTDELYGYLKKYHIDLDPHFNDILGQHSRKRWENFIHSENRHLVSPEALDLLDKLLRYDHQQRLTAKEAMEHPYFYPVVKEQSQPCAENTVLSSGLTAAR

Assays:
Assay in all cases: two-hybrid
[1] = target: BD-CK2α (UniProt Q60737)
Chain of UniProt Q60737 (Q60737 whole entry): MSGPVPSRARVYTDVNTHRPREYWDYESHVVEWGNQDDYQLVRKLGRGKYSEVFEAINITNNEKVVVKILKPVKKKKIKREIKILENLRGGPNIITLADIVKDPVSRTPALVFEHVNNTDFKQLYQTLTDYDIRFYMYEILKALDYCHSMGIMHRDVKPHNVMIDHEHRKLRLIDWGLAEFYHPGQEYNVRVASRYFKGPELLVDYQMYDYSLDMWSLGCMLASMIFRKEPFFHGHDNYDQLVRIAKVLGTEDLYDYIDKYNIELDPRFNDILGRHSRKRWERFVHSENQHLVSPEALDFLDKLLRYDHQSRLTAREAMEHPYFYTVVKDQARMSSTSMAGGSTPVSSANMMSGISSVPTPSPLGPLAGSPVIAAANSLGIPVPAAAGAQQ

[2] = target: BD-CK2β (UniProt P67871)
Chain of UniProt P67871 (P67871 whole entry, the tested form may be a part): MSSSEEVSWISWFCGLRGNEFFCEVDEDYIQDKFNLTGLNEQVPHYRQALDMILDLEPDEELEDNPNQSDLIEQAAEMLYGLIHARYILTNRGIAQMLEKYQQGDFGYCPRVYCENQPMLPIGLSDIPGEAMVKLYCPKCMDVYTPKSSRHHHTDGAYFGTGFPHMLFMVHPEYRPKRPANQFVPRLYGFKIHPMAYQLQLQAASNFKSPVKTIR

[3] = target: GAL4-DB-CK2α′ fusion protein (mouse) (UniProt O54833)
[4] = target: BD-CKT2 (mouse) (UniProt Q8CH19)
[5] = target: BD-CKT2 1-137 (mouse) (UniProt Q8CH19)
[6] = target: BD-CKT2 138-276 (mouse) (UniProt Q8CH19)

Molecule | β-Gal activity [1] | β-Gal activity [2] | β-Gal activity [3] | β-Gal activity [4] | β-Gal activity [5] | β-Gal activity [6]
CKT2 (CK2 Target protein 2), full length, in pACT2 (from UniProt Q8CH19 1-720) (natural protein) | 1 | < 0.05 | 5.8 |  |  | 
B1 |  |  |  | 5.2 | 2.8 | 6.5
